The values below are quoted from earlier work in PMC5413942.

The data set addresses FhuA Ton box peptide Ton box (Escherichia coli) (UniProt P06971).

pKd: −log10 of the molar value.

Chain of TonB (P02929 whole entry): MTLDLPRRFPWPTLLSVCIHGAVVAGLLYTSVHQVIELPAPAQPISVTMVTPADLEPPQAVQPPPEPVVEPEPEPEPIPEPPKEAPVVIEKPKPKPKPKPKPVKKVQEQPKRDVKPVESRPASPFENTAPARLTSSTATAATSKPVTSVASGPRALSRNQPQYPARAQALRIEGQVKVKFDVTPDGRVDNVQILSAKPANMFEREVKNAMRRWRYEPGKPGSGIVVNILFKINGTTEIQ

As for TonB (from UniProt P02929), the negative logarithm of the Kd (pKd) is 4.44.
